In patent US20050282743A1, “Molecular interactions in cells” (Arbor Vita Corporation, priority 2001, published 2005):
Ends that are not written are not given here. Peptide text beside a SMILES is read from it. * marks the point of attachment. Biotin = O=C1N[C@H]2[C@H](CS[C@H]2CCCCC(=O)*)N1

Assays:
Assay in all cases: G' assay (10 uM PL peptide), results of TABLE 7 and TABLE 12
Format in all cases: binding
[1] = biological target: T1, PDZ protein (GST-PDZ fusion) (Homo sapiens, UniProt Q07157)
T1 construct: made in house; host or cells: E. coli (DH5alpha, BL21 or JM109)
T1 sequence (Q07157 whole entry, the tested form may be a part): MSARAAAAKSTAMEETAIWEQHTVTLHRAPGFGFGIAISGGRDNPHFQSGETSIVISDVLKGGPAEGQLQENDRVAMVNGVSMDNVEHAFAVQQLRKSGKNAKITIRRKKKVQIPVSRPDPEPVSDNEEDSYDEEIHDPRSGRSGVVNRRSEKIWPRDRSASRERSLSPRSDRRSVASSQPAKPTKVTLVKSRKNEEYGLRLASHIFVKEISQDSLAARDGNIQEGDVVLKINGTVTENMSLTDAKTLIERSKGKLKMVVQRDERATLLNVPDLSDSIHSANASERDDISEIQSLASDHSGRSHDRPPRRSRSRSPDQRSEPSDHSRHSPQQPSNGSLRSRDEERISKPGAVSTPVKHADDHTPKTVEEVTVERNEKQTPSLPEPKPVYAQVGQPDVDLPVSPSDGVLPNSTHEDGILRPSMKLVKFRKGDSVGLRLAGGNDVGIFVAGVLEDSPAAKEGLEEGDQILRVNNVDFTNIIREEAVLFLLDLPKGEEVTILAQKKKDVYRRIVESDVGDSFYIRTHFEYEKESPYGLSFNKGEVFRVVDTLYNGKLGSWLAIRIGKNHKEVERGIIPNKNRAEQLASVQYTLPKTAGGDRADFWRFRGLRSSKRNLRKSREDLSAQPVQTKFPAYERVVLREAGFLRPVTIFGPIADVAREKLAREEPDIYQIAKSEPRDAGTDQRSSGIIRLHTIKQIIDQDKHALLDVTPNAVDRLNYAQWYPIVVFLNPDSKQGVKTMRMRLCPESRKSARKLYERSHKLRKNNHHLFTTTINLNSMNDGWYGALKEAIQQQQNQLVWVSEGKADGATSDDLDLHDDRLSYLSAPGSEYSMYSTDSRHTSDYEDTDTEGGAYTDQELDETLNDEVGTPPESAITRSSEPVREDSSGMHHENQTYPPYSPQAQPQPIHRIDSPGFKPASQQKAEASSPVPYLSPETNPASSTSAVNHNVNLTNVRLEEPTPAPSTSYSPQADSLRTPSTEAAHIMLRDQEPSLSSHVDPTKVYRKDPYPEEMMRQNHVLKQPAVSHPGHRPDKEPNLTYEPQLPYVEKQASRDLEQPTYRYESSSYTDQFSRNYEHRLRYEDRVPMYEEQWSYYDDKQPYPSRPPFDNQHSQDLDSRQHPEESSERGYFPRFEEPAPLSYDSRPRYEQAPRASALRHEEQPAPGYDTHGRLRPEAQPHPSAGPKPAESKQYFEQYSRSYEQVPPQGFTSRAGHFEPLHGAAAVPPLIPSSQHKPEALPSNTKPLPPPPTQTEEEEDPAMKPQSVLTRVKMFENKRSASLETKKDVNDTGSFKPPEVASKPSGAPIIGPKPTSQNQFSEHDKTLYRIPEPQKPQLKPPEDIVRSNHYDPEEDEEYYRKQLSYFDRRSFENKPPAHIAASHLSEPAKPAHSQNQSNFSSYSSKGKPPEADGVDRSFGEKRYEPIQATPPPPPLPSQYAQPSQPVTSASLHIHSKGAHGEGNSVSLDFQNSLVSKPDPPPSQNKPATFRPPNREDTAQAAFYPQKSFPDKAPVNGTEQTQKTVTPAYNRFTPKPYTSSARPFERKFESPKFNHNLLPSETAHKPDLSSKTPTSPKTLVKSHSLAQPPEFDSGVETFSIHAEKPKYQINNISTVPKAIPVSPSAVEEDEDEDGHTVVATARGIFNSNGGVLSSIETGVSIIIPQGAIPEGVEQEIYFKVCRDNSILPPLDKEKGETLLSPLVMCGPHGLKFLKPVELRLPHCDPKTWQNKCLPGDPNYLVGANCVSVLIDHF
Method in brief: (§1)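 Binding classes derive from A450 nm of bound biotin-tagged PL peptide. A score of 5 needs A450 above 4 in more than two repeats.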

[2] = biological target: T2, PDZ protein (GST-PDZ fusion) (Homo sapiens, UniProt Q9Y2H9); details: PDZ KIAA0973, PDZ Domain 1
T2 construct: made in house; host or cells: E. coli (DH5alpha, BL21 or JM109)
T2 sequence (Q9Y2H9 whole entry, the tested form may be a part): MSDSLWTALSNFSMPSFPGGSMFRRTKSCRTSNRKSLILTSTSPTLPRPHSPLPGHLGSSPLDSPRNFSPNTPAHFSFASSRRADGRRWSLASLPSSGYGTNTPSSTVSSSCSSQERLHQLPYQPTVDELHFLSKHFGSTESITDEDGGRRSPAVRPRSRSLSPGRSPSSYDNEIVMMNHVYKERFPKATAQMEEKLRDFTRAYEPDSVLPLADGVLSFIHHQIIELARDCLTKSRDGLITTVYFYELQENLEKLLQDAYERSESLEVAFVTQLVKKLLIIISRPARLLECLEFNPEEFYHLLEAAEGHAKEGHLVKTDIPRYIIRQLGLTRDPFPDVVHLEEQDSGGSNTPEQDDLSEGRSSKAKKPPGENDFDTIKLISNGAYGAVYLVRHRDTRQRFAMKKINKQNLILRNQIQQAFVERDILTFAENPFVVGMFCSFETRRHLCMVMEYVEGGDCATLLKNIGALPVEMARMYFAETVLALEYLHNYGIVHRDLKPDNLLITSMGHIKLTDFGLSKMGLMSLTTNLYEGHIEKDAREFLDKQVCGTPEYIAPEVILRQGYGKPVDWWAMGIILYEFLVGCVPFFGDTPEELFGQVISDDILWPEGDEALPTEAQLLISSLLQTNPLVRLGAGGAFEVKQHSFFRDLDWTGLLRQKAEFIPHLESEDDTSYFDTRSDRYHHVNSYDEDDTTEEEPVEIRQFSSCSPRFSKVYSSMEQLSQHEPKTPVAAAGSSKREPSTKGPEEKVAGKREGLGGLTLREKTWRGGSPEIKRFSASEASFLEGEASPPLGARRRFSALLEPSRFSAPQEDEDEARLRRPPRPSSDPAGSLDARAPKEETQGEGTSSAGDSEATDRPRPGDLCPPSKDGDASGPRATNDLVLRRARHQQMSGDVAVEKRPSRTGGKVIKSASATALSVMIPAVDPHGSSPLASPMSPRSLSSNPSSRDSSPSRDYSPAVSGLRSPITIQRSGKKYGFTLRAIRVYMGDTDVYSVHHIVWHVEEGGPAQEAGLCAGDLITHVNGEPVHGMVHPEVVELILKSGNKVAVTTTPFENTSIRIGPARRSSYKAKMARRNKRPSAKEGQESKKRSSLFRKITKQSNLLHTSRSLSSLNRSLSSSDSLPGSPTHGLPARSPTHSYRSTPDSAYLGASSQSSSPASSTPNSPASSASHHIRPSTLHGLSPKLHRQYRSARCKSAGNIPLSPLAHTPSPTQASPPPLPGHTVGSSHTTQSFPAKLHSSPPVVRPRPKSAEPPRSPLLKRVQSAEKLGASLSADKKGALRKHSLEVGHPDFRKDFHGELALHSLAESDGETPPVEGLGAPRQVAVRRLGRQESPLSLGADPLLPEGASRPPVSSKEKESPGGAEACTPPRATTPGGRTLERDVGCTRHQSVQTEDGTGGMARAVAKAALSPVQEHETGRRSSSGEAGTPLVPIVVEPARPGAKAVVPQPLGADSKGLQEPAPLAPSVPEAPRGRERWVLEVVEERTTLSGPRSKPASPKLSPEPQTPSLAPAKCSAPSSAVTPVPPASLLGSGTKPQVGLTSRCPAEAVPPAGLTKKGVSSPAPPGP
Method in brief: as §1

[3] = biological target: T3, PDZ protein (GST-PDZ fusion) (Homo sapiens, UniProt Q8TEW0); details: PDZ PAR3, PDZ Domain 3
T3 construct: made in house; host or cells: E. coli (DH5alpha, BL21 or JM109)
T3 sequence (Q8TEW0 whole entry, the tested form may be a part): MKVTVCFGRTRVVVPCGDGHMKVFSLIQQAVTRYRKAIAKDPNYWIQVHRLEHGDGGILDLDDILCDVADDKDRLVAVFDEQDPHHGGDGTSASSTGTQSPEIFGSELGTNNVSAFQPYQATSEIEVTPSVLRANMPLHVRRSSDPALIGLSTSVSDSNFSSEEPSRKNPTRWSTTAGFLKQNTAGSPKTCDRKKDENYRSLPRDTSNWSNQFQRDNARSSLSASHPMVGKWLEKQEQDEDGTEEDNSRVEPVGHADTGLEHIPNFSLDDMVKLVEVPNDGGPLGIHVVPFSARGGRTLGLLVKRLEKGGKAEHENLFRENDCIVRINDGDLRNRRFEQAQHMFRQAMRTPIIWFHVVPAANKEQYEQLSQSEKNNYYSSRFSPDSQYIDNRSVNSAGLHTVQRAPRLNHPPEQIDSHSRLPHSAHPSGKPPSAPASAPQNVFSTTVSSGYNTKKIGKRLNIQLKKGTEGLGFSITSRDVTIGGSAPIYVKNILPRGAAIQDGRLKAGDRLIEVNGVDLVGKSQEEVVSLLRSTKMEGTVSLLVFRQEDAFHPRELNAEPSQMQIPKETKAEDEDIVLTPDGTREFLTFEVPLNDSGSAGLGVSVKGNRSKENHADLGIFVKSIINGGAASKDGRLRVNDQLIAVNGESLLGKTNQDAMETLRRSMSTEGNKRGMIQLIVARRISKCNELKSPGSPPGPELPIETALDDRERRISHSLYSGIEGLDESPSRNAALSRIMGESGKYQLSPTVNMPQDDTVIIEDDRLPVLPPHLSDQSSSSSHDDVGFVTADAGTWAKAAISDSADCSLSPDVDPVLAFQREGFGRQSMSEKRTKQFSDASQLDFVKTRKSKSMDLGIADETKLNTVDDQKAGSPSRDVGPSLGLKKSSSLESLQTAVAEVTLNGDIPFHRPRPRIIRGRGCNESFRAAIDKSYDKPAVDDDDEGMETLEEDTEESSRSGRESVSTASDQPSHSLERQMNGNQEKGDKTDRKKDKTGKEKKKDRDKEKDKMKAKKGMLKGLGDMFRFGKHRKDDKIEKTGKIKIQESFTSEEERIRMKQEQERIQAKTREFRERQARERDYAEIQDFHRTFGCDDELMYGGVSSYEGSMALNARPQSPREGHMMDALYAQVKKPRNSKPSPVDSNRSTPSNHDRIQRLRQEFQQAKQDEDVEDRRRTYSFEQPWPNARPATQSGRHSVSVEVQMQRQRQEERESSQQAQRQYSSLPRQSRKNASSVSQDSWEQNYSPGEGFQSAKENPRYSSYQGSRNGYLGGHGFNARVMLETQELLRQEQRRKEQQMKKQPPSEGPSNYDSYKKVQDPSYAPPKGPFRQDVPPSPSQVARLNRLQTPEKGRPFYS
Method in brief: as §1

[4] = biological target: T4, PDZ protein (GST-PDZ fusion) (Homo sapiens, UniProt Q9NSN8); details: PDZ Syntrophin gamma-1, PDZ Domain 1
T4 construct: made in house; host or cells: E. coli (DH5alpha, BL21 or JM109)
T4 sequence (Q9NSN8 1-517): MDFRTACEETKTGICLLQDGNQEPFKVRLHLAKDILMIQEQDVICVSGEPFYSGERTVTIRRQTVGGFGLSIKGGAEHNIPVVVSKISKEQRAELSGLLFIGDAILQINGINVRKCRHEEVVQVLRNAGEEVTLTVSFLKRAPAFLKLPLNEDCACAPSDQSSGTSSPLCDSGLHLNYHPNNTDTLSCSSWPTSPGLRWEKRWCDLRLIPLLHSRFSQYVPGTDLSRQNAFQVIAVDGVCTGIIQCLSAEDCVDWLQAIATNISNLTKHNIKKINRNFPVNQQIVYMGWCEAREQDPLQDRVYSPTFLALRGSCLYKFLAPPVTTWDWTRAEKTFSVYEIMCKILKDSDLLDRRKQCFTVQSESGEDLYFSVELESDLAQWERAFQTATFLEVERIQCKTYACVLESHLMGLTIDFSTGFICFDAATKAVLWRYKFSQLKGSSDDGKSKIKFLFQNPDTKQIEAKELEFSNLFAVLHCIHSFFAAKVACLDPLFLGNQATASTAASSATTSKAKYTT
Method in brief: as §1

Row | Molecule | Classification ([1]; PDZ ZO-1, PDZ Domain 1) | Classification [3] | other results
1 | GPVPGEPAKPKTSAHHATFV (Biotin-GPVPGEPAKPKTSAHHATFV) | 1 (A450 nm 0-1) | – | –
2 | CC[C@H](C)[C@H](NC(=O)CNC(=O)[C@H](CO)NC(=O)[C@H](Cc1ccccc1)NC(=O)[C@@H](NC(=O)[C@H](CS)NC(=O)CNC(=O)CNC(=O)[C@H](C)NC(=O)[C@@H]1CCCN1C(=O)[C@@H](NC(=O)[C@@H]1CCCN1C(=O)CCCC[C@@H]1SC[C@@H]2NC(=O)N[C@@H]21)[C@@H](C)CC)[C@@H](C)O)C(=O)N[C@@H](Cc1ccccc1)C(=O)N1CCC[C@H]1C(=O)N[C@H](C(=O)N[C@@H](CC(C)C)C(=O)N[C@H](C(=O)N[C@@H](CO)C(=O)N1CCC[C@H]1C(=O)N[C@@H](CC(C)C)C(=O)O)[C@@H](C)O)[C@@H](C)O [KIA 1481] (Biotin-PIPAGGCTFSGIFPTLTSPL-OH; C-terminus assumed) | – | – | Classification [2]: 2 (A450 nm 1-2)
3 | A2AC_HUMAN (Modified) (Biotin-DFRPSFKHILFRRARRGFRQ; not fully specified) | – | – | Classification [2]: 3 (A450 nm 2-3)
4 | CC[C@H](C)[C@H](NC(=O)[C@H](CC(=O)O)NC(=O)[C@H](CCC(=O)O)NC(=O)[C@H](CCCNC(=N)N)NC(=O)[C@@H](NC(=O)CCCC[C@@H]1SC[C@@H]2NC(=O)N[C@@H]21)[C@@H](C)O)C(=O)N[C@@H](Cc1ccc(O)cc1)C(=O)N[C@H](C(=O)N[C@@H](CC(N)=O)C(=O)N[C@@H](Cc1ccc(O)cc1)C(=O)N1CCC[C@H]1C(=O)N[C@H](C(=O)N[C@@H](Cc1ccccc1)C(=O)N[C@@H](CO)C(=O)N[C@@H](CCCNC(=N)N)C(=O)N[C@@H](CCCNC(=N)N)C(=O)N1CCC[C@H]1C(=O)N[C@@H](CCCCN)C(=O)N[C@H](C(=O)N[C@@H](CCCNC(=N)N)C(=O)N[C@H](C(=O)O)C(C)C)[C@@H](C)O)[C@@H](C)O)C(C)C [DNAM-1] (Biotin-TREDIYVNYPTFSRRPKTRV-OH; C-terminus assumed) | 2 (A450 nm 1-2) | – | –
5 | VHDAESSDEDGYDWGPATDL (Biotin-VHDAESSDEDGYDWGPATDL) [zona occludens 3 (ZO-3)] | – | 1 (A450 nm 0-1) | Classification [2]: 2 (A450 nm 1-2)
6 | CC[C@H](C)[C@H](NC(=O)[C@H](CCC(N)=O)NC(=O)[C@@H](NC(=O)[C@H](Cc1c[nH]cn1)NC(=O)[C@H](CCC(N)=O)NC(=O)[C@H](CC(=O)O)NC(=O)[C@H](CCC(=O)O)NC(=O)[C@H](CC(=O)O)NC(=O)[C@H](Cc1ccccc1)NC(=O)[C@@H]1CCCN1C(=O)[C@H](CCC(=O)O)NC(=O)[C@H](CC(N)=O)NC(=O)[C@H](CCC(=O)O)NC(=O)[C@@H]1CCCN1C(=O)[C@H](CC(=O)O)NC(=O)[C@H](CO)NC(=O)[C@H](CC(=O)O)NC(=O)CCCC[C@@H]1SC[C@@H]2NC(=O)N[C@@H]21)[C@@H](C)O)C(=O)N[C@H](C(=O)N[C@@H](CCCCN)C(=O)N[C@H](C(=O)O)C(C)C)[C@@H](C)O [PTEN] | – | – | Classification [4]: 1 (A450 nm 0-1)
7 | CC(C)C[C@H](NC(=O)CNC(=O)[C@@H](NC(=O)[C@H](CO)NC(=O)[C@H](CC(N)=O)NC(=O)[C@H](Cc1ccccc1)NC(=O)CNC(=O)[C@H](C)NC(=O)[C@H](C)NC(=O)[C@H](Cc1ccccc1)NC(=O)[C@@H](NC(=O)CCCC[C@@H]1SC[C@@H]2NC(=O)N[C@@H]21)[C@@H](C)O)[C@@H](C)O)C(=O)N1CCC[C@H]1C(=O)N[C@@H](Cc1c[nH]cn1)C(=O)N[C@@H](CO)C(=O)N[C@H](C(=O)N[C@H](C(=O)N[C@@H](CCCNC(=N)N)C(=O)N[C@H](C(=O)O)C(C)C)[C@@H](C)O)[C@@H](C)O [Neuroligin] (Biotin-TFAAGFNSTGLPHSTTRV-OH; C-terminus assumed) | 1 (A450 nm 0-1) | – | –
8 | CC(C)C[C@H](NC(=O)[C@H](Cc1c[nH]c2ccccc12)NC(=O)[C@H](Cc1c[nH]cn1)NC(=O)[C@H](CCCNC(=N)N)NC(=O)[C@H](CC(C)C)NC(=O)[C@@H](NC(=O)[C@H](Cc1ccccc1)NC(=O)[C@H](CCC(N)=O)NC(=O)[C@H](CCCNC(=N)N)NC(=O)[C@@H](NC(=O)[C@H](CCC(=O)O)NC(=O)CNC(=O)[C@H](CCCNC(=N)N)NC(=O)[C@H](CC(=O)O)NC(=O)[C@@H](NC(=O)[C@H](CC(C)C)NC(=O)[C@H](CCC(=O)O)NC(=O)[C@H](CCCNC(=N)N)NC(=O)CCCC[C@@H]1SC[C@@H]2NC(=O)N[C@@H]21)C(C)C)C(C)C)[C@@H](C)O)C(=O)N[C@@H](CCCCN)C(=O)N[C@H](C(=O)O)C(C)C [Dopamine transporter (Na+-dependent)] (Biotin-RELVDRGEVRQFTLRHWLKV-OH; C-terminus assumed) | – | – | Classification ([1]; PDZ ZO-1, PDZ Domain 2): 1 (A450 nm 0-1)
9 | PYSELNYETSHYPASPDSWV (Biotin-PYSELNYETSHYPASPDSWV) [catenin - delta 2] | – | 1 (A450 nm 0-1) | Classification [4]: 1 (A450 nm 0-1)
10 | ELLQFCRTPNPALKNGQYWV (Biotin-ELLQFCRTPNPALKNGQYWV) | 5 (A450 nm of 4 more than 2× repeated) | 3 (A450 nm 2-3) | Classification ([1]; PDZ ZO-1, PDZ Domain 2): 4 (A450 nm 3-4)
11 | ALVLIAFCIIRRRPSAYQAL (Biotin-ALVLIAFCIIRRRPSAYQAL) [CD68] | – | – | Classification [2]: 1 (A450 nm 0-1)
12 | A2AA_HUMAN (modified) (Biotin-HDFRRAFKKILARGDRKRIV; not fully specified) | – | 2 (A450 nm 1-2) | Classification ([1]; PDZ ZO-1, PDZ Domain 2): 4 (A450 nm 3-4); Classification [4]: 2 (A450 nm 1-2)
13 | CC[C@H](C)[C@H](NC(=O)[C@H](C)NC(=O)[C@H](CC(C)C)NC(=O)[C@H](Cc1c[nH]c2ccccc12)NC(=O)[C@H](Cc1c[nH]cn1)NC(=O)[C@H](CCC(N)=O)NC(=O)[C@H](CC(C)C)NC(=O)[C@H](CCC(N)=O)NC(=O)[C@H](Cc1ccccc1)NC(=O)[C@H](CCC(N)=O)NC(=O)[C@H](CCCNC(=N)N)NC(=O)[C@@H](NC(=O)[C@H](CC(=O)O)NC(=O)[C@H](CCCNC(=N)N)NC(=O)[C@H](CCC(N)=O)NC(=O)[C@H](C)NC(=O)[C@@H](NC(=O)[C@H](CC(C)C)NC(=O)[C@H](Cc1c[nH]cn1)NC(=O)[C@H](Cc1c[nH]cn1)NC(=O)CCCC[C@@H]1SC[C@@H]2NC(=O)N[C@@H]21)C(C)C)[C@@H](C)CC)C(=O)O [noradrenaline transporter] (Biotin-HHLVAQRDIRQFQLQHWLAI-OH; C-terminus assumed) | – | 4 (A450 nm 3-4) | Classification ([1]; PDZ ZO-1, PDZ Domain 2): 2 (A450 nm 1-2)
14 | CC[C@H](C)[C@H](NC(=O)[C@H](Cc1ccc(O)cc1)NC(=O)[C@H](CC(C)C)NC(=O)[C@H](CCC(N)=O)NC(=O)[C@H](Cc1c[nH]cn1)NC(=O)[C@H](CO)NC(=O)[C@H](C)NC(=O)[C@H](CC(C)C)NC(=O)[C@@H](NC(=O)[C@H](CC(=O)O)NC(=O)[C@H](CCSC)NC(=O)[C@H](Cc1ccccc1)NC(=O)[C@@H]1CCCN1C(=O)[C@H](CCCNC(=N)N)NC(=O)[C@@H](NC(=O)[C@H](CC(C)C)NC(=O)[C@H](CC(N)=O)NC(=O)[C@H](CC(=O)O)NC(=O)[C@@H](NC(=O)[C@H](CO)NC(=O)CCCC[C@@H]1SC[C@@H]2NC(=O)N[C@@H]21)[C@@H](C)O)C(C)C)[C@@H](C)O)C(=O)O [presenilin-2] (Biotin-STDNLVRPFMDTLASHQLYI-OH; C-terminus assumed) | 1 (A450 nm 0-1) | 5 (A450 nm of 4 more than 2× repeated) | –
15 | CC[C@H](C)[C@H](NC(=O)[C@H](CCCCN)NC(=O)[C@@H](NC(=O)[C@H](CO)NC(=O)[C@@H]1CCCN1C(=O)[C@H](Cc1ccccc1)NC(=O)[C@@H](NC(=O)[C@@H](NC(=O)[C@H](CCCNC(=N)N)NC(=O)[C@H](CCC(=O)O)NC(=O)[C@H](CC(C)C)NC(=O)[C@H](CC(C)C)NC(=O)[C@H](CC(C)C)NC(=O)[C@@H](NC(=O)CNC(=O)[C@@H](NC(=O)CCCC[C@@H]1SC[C@@H]2NC(=O)N[C@@H]21)C(C)C)[C@@H](C)O)C(C)C)[C@@H](C)CC)C(C)C)C(=O)N[C@@H](C)C(=O)N[C@H](C(=O)N[C@@H](CC(C)C)C(=O)N[C@H](C(=O)O)C(C)C)[C@@H](C)O [Adenovirus E4 Type9] | – | – | Classification ([1]; PDZ ZO-1, PDZ Domain 1, PL peptide 10 uM): 2 (A450 nm 1-2)

The next lines start with results.

Row | Classification ([1]; PDZ ZO-1, PDZ Domain 1) | Classification [3] | Molecule | other results
16 | – | 5 (A450 nm of 4 more than 2× repeated) | KTMPAAMFRLLTGQETPLYI (Biotin-KTMPAAMFRLLTGQETPLYI) [MINT-2] | –
17 | – | 1 (A450 nm 0-1) | KTMPAATYRLLTGQEQPVYL (Biotin-KTMPAATYRLLTGQEQPVYL) [MINT-3] | Classification [2]: 2 (A450 nm 1-2)
18 | 1 (A450 nm 0-1) | 5 (A450 nm of 4 more than 2× repeated) | CC[C@H](C)[C@H](NC(=O)[C@H](Cc1ccc(O)cc1)NC(=O)[C@@H](NC(=O)[C@@H]1CCCN1C(=O)[C@H](CCC(N)=O)NC(=O)[C@H](CCC(=O)O)NC(=O)[C@H](CCC(N)=O)NC(=O)[C@H](C)NC(=O)[C@@H](NC(=O)[C@H](CC(C)C)NC(=O)[C@H](CC(C)C)NC(=O)[C@H](CCCNC(=N)N)NC(=O)[C@H](Cc1ccc(O)cc1)NC(=O)[C@H](CCSC)NC(=O)[C@H](C)NC(=O)[C@H](C)NC(=O)[C@@H]1CCCN1C(=O)[C@H](CCSC)NC(=O)[C@@H](NC(=O)[C@H](CCCCN)NC(=O)CCCC[C@@H]1SC[C@@H]2NC(=O)N[C@@H]21)[C@@H](C)O)[C@@H](C)O)C(C)C)C(=O)O [MINT-1] (Biotin-KTMPAAMYRLLTAQEQPVYI-OH; C-terminus assumed) | –
